Source: paper PMC11357854

Tests used:
PDK1 1-556 = PDK1 1-556 (UniProt O15530); test: AlphaScreen GST-PRK2 / His-PDK1; conditions: reference: wild type; sites T958
[1] = target: PDK1 catalytic domain, 50-359 (UniProt O15530); test: AlphaScreen GST-PRK2 / His-PDK1; conditions: reference: wild type; sites T958

| Substance | binding against the reference (PDK1 1-556) | binding against the reference [1] |
| --- | --- | --- |
| PRK2 (PKN2) 1-984 (from UniProt Q16513) T958A | stronger | stronger |
| PRK2 (PKN2) catalytic domain, 643-984 (from UniProt Q16513) T958A | – | stronger |
